Test results as given in the supplement of paper PMC10126150.
± gives the standard deviation of the averaged measurements.

System: ATP
Assay: switch fluorescence ratio, 500 uM ATP over buffer (Cy3 cluster intensity, sum of 5 cycles each) (fold (ratio)); higher = stronger signal-on switching upon ATP binding; sequences stand for … in TCGTCGGCAGCGTCAGATGTGTATAAGAGACAGTTTTTTTTTTTTTTTTTTTTTTTTT…TC
Conditions: aptamer strand: ATP DNA aptamer (quencher-CACCTGGGGGAGTATTGCGGAGGAAGG + anchor), 100 nM annealed; ATP concentration: 500 uM
Method in brief: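 After annealing to 100 nM quencher-labelled ATP aptamer, Cy3-labelled switching-strand clusters on a modified Illumina MiSeq flow-cell were imaged in selection buffer. A second image followed after 15 min with 500 uM ATP at 22 °C, and five such buffer/ATP cycles were done, each separated by NaOH stripping and re-annealing. The fluorescence ratio, averaged per switch-domain sequence, is summed target-cycle over summed buffer-cycle Cy3 intensity per cluster, with clusters outside 100-1000 RFU excluded.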
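Also: ATP exposure 15 min at 22 °C before imaging.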

Sequence | switch fluorescence ratio
AATATCTCAC | 1.022 ± 0.0087
AATATGAGAT | 0.9799 ± 0.0073
AATATGAGTA | 0.993 ± 0.038
AATATGGGTT | 0.9802 ± 0.0091
AATATGTCGG | 1 ± 0.021
AATATTATTA | 1.019 ± 0.0041
AATATTTATT | 1.02 ± 0.0091
AATATTTGGC | 1 ± 0.059
AATATTTTTC | 1.01 ± 0.015
AATCAAACAT | 1.03 ± 0.018
AATCAATCTA | 1.01 ± 0.071
AATCAATTAC | 1.123 ± 0.011
AATCAGCATT | 1.08 ± 0.076
AATCAGGGTA | 1.01 ± 0.04
AATCAGGGTG | 1.16 ± 0.01
AATCAGTGTA | 1 ± 0.051
AATCAGTTTG | 1.022 ± 0.0094
AATCCAAAAG | 1.026 ± 0.0043
AATCCCTTTT | 1 ± 0.031
AATCCGCTCT | 1.2 ± 0.11
AATCCTGCGT | 1.16 ± 0.21
AATCGAATAT | 1 ± 0.015

Sequence | switch fluorescence ratio
AATCGATTTG | 0.989 ± 0.032
AATCGCGGGC | 1.09 ± 0.024
AATCGGATTG | 1 ± 0.025
AATCGGGAGT | 1.013 ± 0.0094
AATCGGGCGC | 1.01 ± 0.048
AATCGGGTGC | 1.05 ± 0.054
AATCGGTAAT | 1.027 ± 0.0081
AATCGGTGGG | 0.997 ± 0.03
AATCGTATAG | 0.9817 ± 0.0042
AATCGTTAGG | 0.969 ± 0.022
AATCTCCGAG | 1.09 ± 0.031
AATCTGGGTG | 1.11 ± 0.034
AATCTTGATG | 0.981 ± 0.03
AATCTTGTGT | 0.985 ± 0.027
AATGAAAATC | 1.08 ± 0.15
AATGAAAGAT | 0.998 ± 0.039
AATGACAGGG | 0.988 ± 0.02
AATGACGGTA | 1.0565 ± 0.00075
AATGACGTGT | 1 ± 0.052
AATGAGATCG | 1.01 ± 0.016
AATGAGGGAA | 0.9986 ± 0.0011
AATGAGTGGA | 1.008 ± 0.0063

Sequence | switch fluorescence ratio
AATGAGTTTT | 0.998 ± 0.027
AATGCAGGTA | 1.03 ± 0.027
AATGCATCTG | 0.973 ± 0.013
AATGCCTCAG | 1 ± 0.024
AATGCCTTTT | 1.04 ± 0.037
AATGCGGGGT | 1.13 ± 0.16
AATGCGTATG | 1.02 ± 0.036
AATGCGTGGC | 1.0436 ± 0.00057
AATGCTAATA | 0.952 ± 0.011
AATGCTGTGT | 0.97 ± 0.021
AATGGAATTT | 1.03 ± 0.066
AATGGAGGGA | 0.974 ± 0.011
AATGGAGGGT | 1.03 ± 0.055
AATGGATATG | 1.02 ± 0.058
AATGGCACAG | 1.01 ± 0.015
AATGGCATTT | 0.989 ± 0.025
AATGGCCAAG | 1 ± 0.0056
AATGGCGCGA | 1.02 ± 0.054
AATGGGGAAT | 1.25 ± 0.4
AATGGGGGTA | 0.998 ± 0.034
AATGGGGTAT | 1.02 ± 0.018
AATGGGTAC | 1.015 ± 0.0059

Sequence | switch fluorescence ratio
AATGGGTACT | 1 ± 0.015
AATGGGTTCA | 1.021 ± 0.0062
AATGGGTTGA | 0.9743 ± 0.0053
AATGGTAATT | 0.995 ± 0.039
AATGGTAGGG | 1 ± 0.03
AATGGTCAT | 0.991 ± 0.071
AATGGTGATT | 1.02 ± 0.046
AATGGTGCCT | 0.996 ± 0.07
AATGGTTTGG | 0.985 ± 0.013
AATGTCAATG | 0.991 ± 0.021
AATGTCAGCT | 1.01 ± 0.021
AATGTCATCA | 0.993 ± 0.013
AATGTCATTT | 1 ± 0.018
AATGTGCGGG | 0.963 ± 0.042
AATGTGCTGT | 0.983 ± 0.058
AATGTGGACG | 0.988 ± 0.04
AATGTGTGAA | 1.01 ± 0.017
AATGTTAAGT | 0.994 ± 0.022
AATGTTATCT | 0.994 ± 0.057
